In publication PMC4072508, “Genome-Wide Prediction and Validation of Peptides That Bind Human Prosurvival Bcl-2 Proteins” (PLoS Computational Biology, 2014):
“And” between values parts separate entries of the source, which are not always exact repeats. Identical values can stand only once.

Tests used:
Bcl-xL = target: T1, Bcl-xL (Homo sapiens, UniProt Q07817); assay: LUMIER full-length protein interaction; type: binding; details: LUMIER results for Bcl-xL; for z-score 2.2: experiment 2, duplicate 2; for z-score 1.1: experiment 1, duplicate 1; for z-score 1.2: experiment 1, duplicate 2; for z-score 2.1: experiment 2, duplicate 1
T1 construct: myc-Bcl-xL SPOT array & FP; made in house
Method: (§1) The LUMIER assay was carried out as previously described with the following modifications. A stable cell line expressing receptor tagged on the N-terminus with Nanoluc luciferase was created (the prey). […] Each bait construct was transfected into the receptor-luciferase cells in a 96-well format and after 48 hours the cells were lysed and transferred to 384-well plates coated with anti-FLAG. After incubation and washing, luminescence was measured to quantify how much receptor-luciferase was captured by the bait protein. Anti-Flag ELISA signal was used to exclude bait proteins that were not expressed. The experiment was carried out two times, each in duplicate.

Mcl-1 = target: T2, Mcl-1 (Homo sapiens, UniProt Q07820); assay: LUMIER full-length protein interaction; type: binding; details: LUMIER results for Mcl-1, Z-score relative to Gaussian fit of the data; for z-score 2.1: experiment 2, duplicate 1; for z-score 2.2: experiment 2, duplicate 2; for z-score 1.2: experiment 1, duplicate 2
T2 construct: myc-Mcl-1 SPOT array & FP; made in house
Method: as §1

[1] = Z-score relative to Gaussian fit of the data
[2] = Z-score of the interaction relative to the Gaussian fit of the data

T2 sequence (Q07820 with tags, fused parts or gaps): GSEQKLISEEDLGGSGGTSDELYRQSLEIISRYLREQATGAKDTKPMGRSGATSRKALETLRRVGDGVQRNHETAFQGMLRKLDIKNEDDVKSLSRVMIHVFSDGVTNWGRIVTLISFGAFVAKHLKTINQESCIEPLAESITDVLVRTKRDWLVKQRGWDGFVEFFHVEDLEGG
T1 sequence (Q07817 with tags, fused parts or gaps): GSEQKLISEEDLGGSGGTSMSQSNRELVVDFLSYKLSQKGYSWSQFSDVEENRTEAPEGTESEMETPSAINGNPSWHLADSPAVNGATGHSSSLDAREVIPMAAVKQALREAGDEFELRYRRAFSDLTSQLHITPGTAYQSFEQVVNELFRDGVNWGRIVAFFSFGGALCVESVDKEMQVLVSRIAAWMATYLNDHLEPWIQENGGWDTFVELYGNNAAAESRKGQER

Substance | z-score 2.2 (Bcl-xL; [1]) | z-score 2.1 (Mcl-1) | z-score 2.2 (Mcl-1) | z-score 1.1 (Bcl-xL; [1]) | z-score 1.2 (Bcl-xL; [1]) | z-score 2.1 (Bcl-xL; [1]) | z-score 1.2 (Mcl-1) | z-score 1.1 (Bcl-xL; [2]) | z-score 1.2 (Bcl-xL; [2]) | z-score 2.1 (Bcl-xL; [2]) | z-score 2.2 (Bcl-xL; [2])
NOL8 (KYDPSKYCHNLKKIGEDFSNTIPISS) | 3.656 | 2.02 | 1.79 | 1.001 | -1.268 | 4.4 | 0.3257 |  |  |  | 
NRN1L (DTIYQGFAECLIRLGDSMGRGGELET) | 0.03743 | 0.005652 | 1.343 | -0.79 | -2.494 | 0.3656 | 1.162 |  |  |  | 
P2RX7 (QCPIFRLGDIFRETGDNFSDVAIQGG) | -0.7989 | -0.1664 | -0.3437 | 0.2486 | -0.6775 | 0.2039 | -0.04596 |  |  |  | 
PCNXL2 (LLDFFMVSILFSKLGDLLHKLQFVLT) | 1.005 | 0.4915 | -0.3857 | -0.7258 | 0.8817 | 0.72 | -1.056 |  |  |  | 
PPAT (RLRQLGVAKKFGVLSDNFKGKRIVLV) | -0.4829 | -0.6136 | -0.9152 | -0.3811 | 0.4308 | -0.2564 | 0.1831 |  |  |  | 
RNF160 (WLKGDILGEKLVNLADCLCNEDLESR) | 3.519 |  | -0.3716 | -0.1237 | 0.7519 | 2.286 | 0.2603 |  |  |  | 
SGCA (LFWTPLLVVLLAGLGDTEAQQTTLHP) | 0.07051 | 0.04852 | -0.477 | 1.122 | 0.5458 | 0.3748 | 1.007 |  |  |  | 
SIPA1 (TAGLRPGARLLRVCGQTLPSLRPEAA) | 2.046 | -0.03415 | -0.3116 | 0.6815 |  | 3.9688 | 0.6268 |  |  |  | 
SMPD2 (PYLSKHRADRMRRLGDFLNQESFDLA) | 2.724 | -0.5316 | -0.9514 | -0.2083 | 2.876 | -0.2736 | -0.1967 |  |  |  | 

More lines, now with the values ahead:

z-score 2.2 (Bcl-xL; [1]) | z-score 2.1 (Mcl-1) | z-score 2.2 (Mcl-1) | z-score 1.1 (Bcl-xL; [1]) | z-score 1.2 (Bcl-xL; [1]) | z-score 2.1 (Bcl-xL; [1]) | z-score 1.2 (Mcl-1) | z-score 1.1 (Bcl-xL; [2]) | z-score 1.2 (Bcl-xL; [2]) | z-score 2.1 (Bcl-xL; [2]) | z-score 2.2 (Bcl-xL; [2]) | Substance
0.4271 and 0.3646 | 1.04 and 0.6675 | 0.5198 and 0.4144 |  |  |  |  |  |  |  |  | ISOC1 (AGYELLIQKFLSLYGDQIDMHRKFVV)
 |  | 0.6441 | 0.3413 | 1.938 | 0.8331 | 0.1627 |  |  |  |  | MAPT
1.668 | 0.7051 | 0.9311 | -0.9043 | 0.9292 | 0.4444 | 0.7633 |  |  |  |  | PRCP (DDMFEPHSWNLKELSDDCFQQWGVRP)
-0.635 | -0.006199 | -0.3116 | -0.3595 | -2.173 | -0.3545 | -0.5708 |  |  |  |  | PRDX4 (LDFTFVCPTEIIAFGDRLEEFRSINT)
 | 3.751 | 3.546 |  |  |  | 0.6899 | 6.764 | -0.4537 | 1.665 | 5.133 | PRKD3 (IQENVDISTVYQIFADEVLGSGQFGI)
1.895 | 1.744 | 0.6936 | 5.112 |  | 2.327 | 0.3355 |  |  |  |  | RBL1 (WTLFVYTKGNFRMIGDDLVNSYHLLL)
